This is an account of results in PMC9897468 (Proceedings of the National Academy of Sciences of the …, 2022).

The chains are these.
B2: full-length mouse KIF5AA homodimer (kinesin-1), unlabeled (natural protein, UniProt P33175 1-1027, looked up)
chain: MAETNNECSIKVLCRFRPLNQAEILRGDKFIPIFQGDDSVIIGGKPYVFDRVFPPNTTQEQVYHACAMQIVKDVLAGYNGTIFAYGQTSSGKTHTMEGKLHDPQLMGIIPRIARDIFNHIYSMDENLEFHIKVSYFEIYLDKIRDLLDVTKTNLSVHEDKNRVPFVKGCTERFVSSPEEILDVIDEGKSNRHVAVTNMNEHSSRSHSIFLINIKQENVETEQKLSGKLYLVDLAGSEKVSKTGAEGAVLDEAKNINKSLSALGNVISALAEGTKSYVPYRDSKMTRILQDSLGGNCRTTMFICCSPSSYNDAETKSTLMFGQRAKTIKNTASVNLELTAEQWKKKYEKEKEKTKAQKETIAKLEAELSRWRNGENVPETERLAGEDSALGAELCEETPVNDNSSIVVRIAPEERQKYEEEIRRLYKQLDDKDDEINQQSQLIEKLKQQMLDQEELLVSTRGDNEKVQRELSHLQSENDAAKDEVKEVLQALEELAVNYDQKSQEVEEKSQQNQLLVDELSQKVATMLSLESELQRLQEVSGHQRKRIAEVLNGLMRDLSEFSVIVGNGEIKLPVEISGAIEEEFTVARLYISKIKSEVKSVVKRCRQLENLQVECHRKMEVTGRELSSCQLLISQHEAKIRSLTEYMQTVELKKRHLEESYDSLSDELARLQAHETVHEVALKDKEPDTQDAEEVKKALELQMENHREAHHRQLARLRDEINEKQKTIDELKDLNQKLQLELEKLQADYERLKNEENEKSAKLQELTFLYERHEQSKQDLKGLEETVARELQTLHNLRKLFVQDVTTRVKKSAEMEPEDSGGIHSQKQKISFLENNLEQLTKVHKQLVRDNADLRCELPKLEKRLRATAERVKALEGALKEAKEGAMKDKRRYQQEVDRIKEAVRYKSSGKRGHSAQIAKPVRPGHYPASSPTNPYGTRSPECISYTNNLFQNYQNLHLQAAPSSTSDMYFASSGATSVAPLASYQKANMDNGNATDINDNRSDLPCGYEAEDQAKLFPLHQETAAS

Assay [1] deals with B2. Kind of assay: TIRF-M in vitro motility reconstitution.
The target of assay [2] is APC-mGFP (UniProt Q61315 1-2845). As to the kind of experiment: TIRF-M in vitro motility reconstitution.

B1: C-terminal APC fragment (APC-C), residues 2,163 to 2,845 (domain or fragment, UniProt Q61315 2163-2845, looked up)
chain: KGPRILKPGEKSTLEAKKIESENKGIKGGKKVYKSLITGKIRSNSEISSQMKQPLPTNMPSISRGRTMIHIPGLRNSSSSTSPVSKKGPPLKTPASKSPSEGPGATTSPRGTKPAGKSELSPITRQTSQISGSNKGSSRSGSRDSTPSRPTQQPLSRPMQSPGRNSISPGRNGISPPNKLSQLPRTSSPSTASTKSSGSGKMSYTSPGRQLSQQNLTKQASLSKNASSIPRSESASKGLNQMSNGNGSNKKVELSRMSSTKSSGSESDSSERPALVRQSTFIKEAPSPTLRRKLEESASFESLSPSSRPDSPTRSQAQTPVLSPSLPDMSLSTHPSVQAGGWRKLPPNLSPTIEYNDGRPTKRHDIARSHSESPSRLPINRAGTWKREHSKHSSSLPRVSTWRRTGSSSSILSASSESSEKAKSEDERHVSSMPAPRQMKENQVPTKGTWRKIKESDISPTGMASQSASSGAASGAESKPLIYQMAPPVSKTEDVWVRIEDCPINNPRSGRSPTGNTPPVIDSVSEKGSSSIKDSKDSKDTHGKQSVGSGSPVQTVGLETRLNSFVQVEAPEQKGTEAKPGQSNPVSIAETAETCIAERTPFSSSSSSKHSSPSGTVAARVTPFNYNPSPRKSSADSTSARPSQIPTPVSTNTKKRDSKTDITESSGAQSPKRHSGSYLVTSV
modifications: Alexa647 label (APC-C-647, in the TIRF-M experiments)
Take B1: the binding result in assay [1] is “binds”.

For B2, in assay [2], the binding result is listed as “binds”.
